This passage reports Kd results from patent publication US20090252748A1 (Biogen, published 2009).

In assay [1] the target is T1, mouse Sp35 protein (ELISA, Western, KD; form not stated) (mouse, UniProt Q9D1T0 34-532, limits assumed).
T1 construct: also called mSp35; mLINGO1
T1 sequence (looked up): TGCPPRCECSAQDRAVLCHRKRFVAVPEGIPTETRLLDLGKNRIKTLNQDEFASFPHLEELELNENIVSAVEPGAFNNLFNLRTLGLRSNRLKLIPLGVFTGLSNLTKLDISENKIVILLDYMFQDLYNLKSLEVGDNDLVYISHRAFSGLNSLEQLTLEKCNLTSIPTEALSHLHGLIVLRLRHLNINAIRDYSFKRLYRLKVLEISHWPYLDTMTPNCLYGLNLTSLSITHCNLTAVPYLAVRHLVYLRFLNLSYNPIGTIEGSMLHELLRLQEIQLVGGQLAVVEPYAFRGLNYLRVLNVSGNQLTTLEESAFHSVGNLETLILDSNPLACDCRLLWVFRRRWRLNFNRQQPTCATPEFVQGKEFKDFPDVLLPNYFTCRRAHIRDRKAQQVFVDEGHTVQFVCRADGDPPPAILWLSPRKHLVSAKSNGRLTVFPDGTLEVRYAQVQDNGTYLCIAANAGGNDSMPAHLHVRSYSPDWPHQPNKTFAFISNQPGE
Briefly: method not stated.

The target of assay [2] is T2, human Sp35 protein (ELISA, Western, KD; form not stated) (human, UniProt Q96FE5 40-538, limits assumed).
T2 construct: also called huSp35; hLINGO-1
T2 sequence: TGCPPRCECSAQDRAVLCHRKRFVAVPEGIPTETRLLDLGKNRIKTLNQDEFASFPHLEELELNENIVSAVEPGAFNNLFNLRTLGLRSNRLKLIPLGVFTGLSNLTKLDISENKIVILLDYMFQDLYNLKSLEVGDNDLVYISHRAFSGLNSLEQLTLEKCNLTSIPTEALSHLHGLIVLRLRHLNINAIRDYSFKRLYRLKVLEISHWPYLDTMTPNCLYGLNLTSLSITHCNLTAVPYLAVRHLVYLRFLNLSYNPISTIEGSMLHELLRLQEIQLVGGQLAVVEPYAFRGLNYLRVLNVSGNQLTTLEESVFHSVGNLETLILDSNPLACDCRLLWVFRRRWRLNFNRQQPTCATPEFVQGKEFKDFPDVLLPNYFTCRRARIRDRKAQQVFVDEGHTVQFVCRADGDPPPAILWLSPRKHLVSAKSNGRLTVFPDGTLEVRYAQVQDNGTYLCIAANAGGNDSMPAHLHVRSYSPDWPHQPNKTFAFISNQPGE
Kind of assay: method not stated.

Assay [3] has as its target T2, human Sp35 protein (ELISA, Western, KD; …). Kind of assay: method not stated; second figure of the same phrase, inconsistent with the 10 nM already written.

The Kd is the concentration at which binding is half-saturated.

B1: 1A7 monoclonal antibody (antibody, mouse IgG1, V domains shown)
VH: QVQLVQSGPELKKPGETVKISCKASGYTFTNYGMNWVKQAPGKGLKWMGWINTDTGEPTYTEDFQGRFAFSLETSASTVYLQFNNLKNEDTATYFCAREGVHFDYWGQGTTVTVSS
VL: QIVLTQSPAIMSASPGEKVTMTCSASSSVSYMHWYQQKSGTSPKRWIYDTSKLASGVPARFSGSGSGTSYSLTISSMEAEDAATYYCQQWSSNPFTFGSGTKLEIK
notes: murine IgG1/kappa; also called P1A7; 1A7 mAb
Regarding B1, the results for the Kd in assay [1], in assay [2] and in assay [3] were 20000 nM, 10 nM and 1 nM, respectively.
